Target: T1, Fen1, budding yeast, wild-type (budding yeast, UniProt P26793 1-382)
T1 construct: Fen1 (flap endonuclease), budding yeast; source: purified
T1 sequence (looked up): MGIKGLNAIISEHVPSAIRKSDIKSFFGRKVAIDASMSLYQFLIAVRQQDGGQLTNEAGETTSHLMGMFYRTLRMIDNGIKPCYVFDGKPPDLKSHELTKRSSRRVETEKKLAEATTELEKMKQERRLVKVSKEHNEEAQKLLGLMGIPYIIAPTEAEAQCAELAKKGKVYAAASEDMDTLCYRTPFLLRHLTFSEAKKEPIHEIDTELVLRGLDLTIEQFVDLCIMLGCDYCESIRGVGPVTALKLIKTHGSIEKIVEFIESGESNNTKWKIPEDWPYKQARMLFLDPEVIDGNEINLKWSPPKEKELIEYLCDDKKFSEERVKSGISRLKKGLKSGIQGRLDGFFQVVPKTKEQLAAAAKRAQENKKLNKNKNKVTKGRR
Assay: pull-down; purified wild-type or mutant Fen1 mixed with PCNA; Fen1 affinity-purified on anti-FLAG beads; co-isolated PCNA by immunoblot
Conditions: both partners purified

binding result: binds
B1: Yeast PCNA (Pol30p) (natural protein, budding yeast, UniProt P15873 1-258, looked up)
chain: MLEAKFEEASLFKRIIDGFKDCVQLVNFQCKEDGIIAQAVDDSRVLLVSLEIGVEAFQEYRCDHPVTLGMDLTSLSKILRCGNNTDTLTLIADNTPDSIILLFEDTKKDRIAEYSLKLMDIDADFLKIEELQYDSTLSLPSSEFSKIVRDLSQLSDSINIMITKETIKFVADGDIGSGSVIIKPFVDMEHPETSIKLEMDQPVDLTFGAKYLLDIIKGSSLSDRVGIRLSSEAPALFQFDLKSGFLQFFLAPKFNDEE
notes: PCNA (Pol30p), budding yeast; source: E. coli BL21 (DE3), purified

Reference: paper PMC6546911 (Nature Communications, 2019)
